Earlier results on two substances are cited in paper PMC4184475.

The pKa is the pH at which an ionisable group is half protonated.

The target of one data set is Cys473 (UniProt position 487, ILIFHCEFSSE). The note with it: reduced thiol form (implied); otherwise not stated.
Another data set deals with Cys106 (UniProt position 106, LIAAICAGPTA). The settings on record: reduced thiol form (implied); otherwise not stated.

With “Cdc25B phosphatase (M-phase inducer phosphatase 2) (Homo sapiens)”, the pKa with Cys473 is recorded as 5.8.

With “DJ-1 (Parkinson disease protein 7) (Homo sapiens)”, the pKa in the data set with Cys106 is 5.4.
